# Reference: article PMC8137935, “Mechanosensitive channel YnaI has lipid-bound extended sensor paddles” (Communications Biology, 2021)
# Molecular target: the molecule itself
# Assay: cryo-EM structure; purified YnaI in LMNG at ~5 mg/ml, with 3 mM fluorinated Fos-Choline-8 added right before freezing; C7 symmetry imposed; 3.3 Å
protein,measurement,value
"YnaI (natural protein, Escherichia coli, UniProt P0AEB5 1-343, looked up, YnaI, Escherichia coli, full-length, UniProt P0AEB5; in the model residues of TM-2 are built as Ala and N335-R343 have no density; Homoheptamer with co-purified lipids; Cloned into pET52b; also called mechanosensitive channel YnaI; MscS homolog YnaI; source: E. coli BL21(DE3) C43, purified in LMNG (TALON, thrombin cut, TALON flow-through, Superose 6); not shown: His-tag, C-terminal, cleaved) MIAELFTNNALNLVIIFGSCAALILMSFWFRRGNRKRKGFLFHAVQFLIYTIIISAVGSIINYVIENYKLKFITPGVIDFICTSLIAVILTIKLFLLINQFEKQQIKKGRDITSARIMSRIIKITIIVVLVLLYGEHFGMSLSGLLTFGGIGGLAVGMAGKDILSNFFSGIMLYFDRPFSIGDWIRSPDRNIEGTVAEIGWRITKITTFDNRPLYVPNSLFSSISVENPGRMTNRRITTTIGLRYEDAAKVGVIVEAVREMLKNHPAIDQRQTLLVYFNQFADSSLNIMVYCFTKTTVWAEWLAAQQDVYLKIIDIVQSHGADFAFPSQTLYMDNITPPEQGR",stoichiometry N,7
